Patent publication US20220120736A1, “METHODS AND ASSAYS FOR MODULATING GENE TRANSCRIPTION BY MODULATING CONDENSATES” (Whitehead Institute for Biomedical Research, priority 2018, published 2022)
Where no end group is shown, it is not given here.

Assays:
[1] = In vitro homotypic droplet formation assay; assay type: physicochemical
Procedure: Slides were then imaged on the Andor Revolution Spinning Disk Confocal using a 100× objective.
The CDK8-Mediator samples were purified as described (Meyer et al., 2008) with modifications. Prior to affinity purification, the P0.5M/QFT fraction was concentrated, to 12 mg/mL, by ammonium sulfate precipitation (35%). […] Affinity purification was carried out as described (Meyer et al., 2008), eluted material was loaded onto a 2.2 mL centrifuge tube containing 2 mL 0.15M KCl HEMG (20 mM HEPES, 0.1 mM EDTA, 2 mM MgCl2, 10% glycerol) and centrifuged at 50K RPM for 4 h at 4° C. This served to remove excess free GST-SREBP and to concentrate the CDK8-Mediator in the final fraction. Prior to droplet assays, purified CDK8-Mediator was concentrated using Microcon-30 kDa Centrifugal Filter Unit with Ultracel-30 membrane (Millipore MRCFOR030) to reach ˜300 nM of Mediator complex. Concentrated CDK8-Mediator was added to the droplet assay to a final concentration of ˜200 nM with or without 10 μM indicated GFP-tagged protein. Droplet reactions contained 10% PEG-8000 and 140 mM salt.
Proteins were stored in 10% glycerol, 50 mM Tris-HCl pH 7.5, 500 mM NaCl, 1 mM DTT. Amicon Ultra Centrifugal filters (30K or 50K MWCO, Millipore) were used to concentrate proteins to desired concentrations. […] Droplet assays were performed in 8-tube PCR strip. […]

[2] = tested on: MED1-GFP condensates; assay: FRAP of MED1-GFP condensates in mESCs; assay type: cell-based, mouse; details: ectopic expression in mESCs, untreated
Procedure: ATP depletion: Cells were cultured for 2 hours in glucose-free DMEM (Gibco, 11966025) supplemented with 0.5× B27 supplement and 0.5× N2 supplement followed by incubation with 5 mM 2-deoxy-glucose (Sigma, D6134) and 126 nM Oligomycin (Sigma, 75351) for 2 hours. Cellular ATP levels were measured using a bioluminescence assay (Invitrogen, A22066) following manufacturer's instructions. Cells expressing fluorescently tagged proteins were imaged ever 1 s for 20 s at a 100× objective on the Andor Revolution Spinning Disk Confocal, […] system and Metamorph acquisition software (W.M. Keck Microscopy Facility, MIT). One or two images were pre-bleach and on then approximately 0.5 μm^2 was bleached with the 488 nm laser of the quantifiable laser module (QLM). FRAP was performed on selecting region of interest with 5 pulses of 20 μs each. For FRAP analysis, florescence recovery was measured as fluorescence intensity of photobleached area normalized to the intensity of the unbleached area or the entire nucleus. Fluorescence intensity was measured with FIJI FRAP profiler plugin (code written by Jeff […], adapted from Tony Collins' Macbiophotonics plugins, available here: //worms.zoology.wisc.edu/research/4d/4d.html

[3] = biological target: T1, MED1-IDR droplets (Homo sapiens, UniProt Q15648); assay: In vitro droplet assay, TMR-labeled decapeptides with MED1-IDR-GFP; assay type: biochemical; details: 10 uM each, 125 mM NaCl, 10% PEG-8000
T1 construct: pETEC-MED1-IDR-GFP; Sabari et al., 2018; 948-1574; 6xHis (N); made in house; host or cells: E. coli LOBSTR
Procedure: Recombinant GFP or mCherry fusion proteins were concentrated and desalted to an appropriate protein concentration and 125 mM NaCl using Amicon Ultra centrifugal filters (30K MWCO, Millipore). Recombinant proteins were added to solutions at varying concentrations with indicated final salt and 10% PEG-8000 as crowding agent in Droplet Formation Buffer (50 mM Tris-HCl pH 7.5, 10% glycerol, 1 mM DTT). The protein solution was immediately loaded onto a homemade chamber comprising a glass slide with a coverslip attached by two parallel strips of double-sided tape. Slides were then imaged with an Andor confocal microscope with a 150× objective. Unless indicated, images presented are of droplets settled on the glass coverslip. For experiments with fluorescently labeled polypeptides, the indicated decapeptides were synthesized by the Koch Institute/MIT Biopolymers & Proteomics Core Facility with a TMR fluorescent tag. The protein of interest was added Buffer D with 125 mM NaCl and 10% Peg-8000 with the indicated polypeptide and imaged as described above. For FRAP of in vitro droplets 5 pulses of laser at a 50 us dwell time was applied to the droplet, and recovery was imaged on an Andor microscope every is for the indicated time periods. […] One microliter of this concentrated stock was used in a 10 uL droplet formation reaction to achieve a final concentration of 10 uM.

[4] = biological target: T2, MED1-IDR-GFP (human, UniProt Q15648 948-1574); assay: in vitro droplet assay with TMR-labeled decapeptide, 125 mM NaCl, 10% PEG-8000
T2 construct: Recombinant from E. coli
Excerpt: All 17 acidic residues in the N-AD and 6 acidic residues in the C-AD were mutated to alanine to generate an OCT4-acidic mutant.

[5] = biological target: T3, MED1-IDR-mCherry (human, UniProt Q15648 948-1574); assay: in vitro droplet assay, 10 uM each, 125 mM NaCl, 10% PEG-8000
T3 construct: Recombinant from E. coli; Lacks the LXXLL motifs; also called mCherry-MED1-IDR

[6] = tested on: HCT116 cells; assay: FRAP of endogenously tagged mEGFP-β-catenin in HCT116 cells; assay type: cell-based; details: nuclear puncta, constitutive WNT-activated HCT116 cells
Procedure: FRAP was performed on LSM880 Airyscan microscope with 488 nm laser. Bleaching was performed over a rbleach≈1 um using 100% laser power and images were collected every two seconds. Fluorescence intensity was measured using FIJI. Background intensity was subtracted and values are reported relative to pre-bleaching time points.
Custom MATLAB™ scripts were written to process the intensity data, accounting for background photobleaching and normalization to pre-bleach intensity. Post bleach FRAP recovery data was averaged over 9 replicates for each cell-line and condition.

GCN4: purified recombinant yeast GCN4-GFP
concentration at which micron-sized droplets form alone ([1]; 125 mM NaCl, 10% PEG-8000): 40 µM

MED1-GFP: full-length human MED1 fused to mEGFP, ectopically expressed in mESCs
apparent diffusion coefficient [2]: 0.36±0.13 μm2/s

Poly-E: TMR labeled glutamic acid decapeptide
incorporation of TMR labeled decapeptide into MED1-IDR droplets [3]: incorporated into MED1-IDR droplets | incorporation of TMR labeled decapeptide into MED1-IDR droplets ([3]; listed as glutamic acid peptides): concentrated within

Poly-P: TMR labeled proline decapeptide (PPPPPPPPPP; also: TMR labeled, site not given here)
incorporation of TMR labeled decapeptide into MED1-IDR droplets [3]: not incorporated into MED1-IDR droplets

B1: TMR-Poly-P Peptide (peptide)
peptide: PPPPPPPPPP
modifications: also: TMR fluorescent tag, site not given here
notes: also called proline decapeptide
binding result [4]: no binding (tested: 10 uM)

B2: ER-GFP (receptor, not shown: large carriers; small tags and cut ends)
chain: MTMTLHTKASGMALLHQIQGNELEPLNRPQLKIPLERPLGEVYLDSSKPAVYNYPEGAAYEFNAAAAANAQVYGQTGLPYGPGSEAAAFGSNGLGGFPPLNSVSPSPLMLLHPPPQLSPFLQPHGQQVPYYLENEPSGYTVREAGPPAFYRPNSDNRRQGGRERLASTNDKGSMAMESAKETRYCAVCNDYASGYHYGVWSCEGCKAFFKRSIQGHNDYMCPATNQCTIDKNRRKSCQACRLRKCYEVGMMKGGIRKDRRGGRMLKHKRQRDDGEGRGEVGSAGDMRAANLWPSPLMIKRSKKNSLALSLTADQMVSALLDAEPPILYSEYDPTRPFSEASMMGLLTNLADRELVHMINWAKRVPGFVDLTLHDQVHLLECAWLEILMIGLVWRSMEHPGKLLFAPNLLLDRNQGKCVEGMVEIFDMLLATSSRFRMMNLQGEEFVCLKSIILLNSGVYTFLSSTLKSLEEKDHIHRVLDKITDTLIHLMAKAGLTLQQQHQRLAQLLLILSHIRHMSNKGMEHLYSMKCKNVVPLYDLLLEMLDAHRLHAPTSRGGASVEETDQSHLATAGSTSSHSLQKYYITGEAEGFPATV
notes: Tested without ligand, with estrogen (beta-estradiol) and with tamoxifen (4-hydroxytamoxifen); also called estrogen receptor; GFP labeled ER
binding result [5]: binds

B3: β-catenin: mEGFP-tagged β-catenin at the endogenous locus in HCT116 cells (protein)
chain: ATQADLMELDMAMEPDRKAAVSHWQQQSYLDSGIHSGATTTAPSLSGKGNPEEEDVDTSQVLYEWEQGFSQSFTQEQVADIDGQYAMTRAQRVRAAMFPETLDEGMQIPSTQFDAAHPTNVQRLAEPSQMLKHAVVNLINYQDDAELATRAIPELTKLLNDEDQVVVNKAAVMVHQLSKKEASRHAIMRSPQMVSAIVRTMQNTNDVETARCTAGTLHNLSHHREGLLAIFKSGGIPALVKMLGSPVDSVLFYAITTLHNLLLHQEGAKMAVRLAGGLQKMVALLNKTNVKFLAITTDCLQILAYGNQESKLIILASGGPQALVNIMRTYTYEKLLWTTSRVLKVLSVCSSNKPAIVEAGGMQALGLHLTDPSQRLVQNCLWTLRNLSDAATKQEGMEGLLGTLVQLLGSDDINVVTCAAGILSNLTCNNYKNKMMVCQVGGIEALVRTVLRAGDREDITEPAICALRHLTSRHQEAEMAQNAVRLHYGLPVVVKLLHPPSHWPLIKATVGLIRNLALCPANHAPLREQGAIPRLVQLLVRAHQDTQRRTSMGGTQQQFVEGVRMEEIVEGCTGALHILARDVHNRIVIRGLNTIPLFVQLLYSPIENIQRVAAGVLCELAQDKEAAEAIEAEGATAPLTELLHSRNEGVATYAAAVLFRMSEDKPQDYKKRLSVELTSSLFRTEPMAWNETADLGLDIGAQGEPLGYRQDDPSYRSFHSGGYGQDALGMDPMMEHEMGGHHPGADYPVDGLPDLGHAQDLMDGLPPGDSNQLAWFDTDL
modifications: left off: large carriers; small tags and cut ends
notes: mEGFP-tagged β-catenin at the endogenous locus in HCT116 cells
approximate apparent diffusion coefficient [6]: ~0.004±0.003 μm^2/s

B4: MED1-IDR: recombinant GFP fusion of the MED1 intrinsically disordered region (948-1574) (protein)
chain: EHHSGSQGPLLTTGDLGKEKTQKRVKEGNGTSNSTLSGPGLDSKPGKRSRTPSNDGKSKDKPPKRKKADTEGKSPSHSSSNRPFTPPTSTGGSKSPGSAGRSQTPPGVATPPIPKITIQIPKGTVMVGKPSSHSQYTSSGSVSSSGSKSHHSHSSSSSSSASTSGKMKSSKSEGSSSSKLSSSMYSSQGSSGSSQSKNSSQSGGKPGSSPITKHGLSSGSSSTKMKPQGKPSSLMNPSLSKPNISPSHSRPPGGSDKLASPMKPVPGTPPSSKAKSPISSGSGGSHMSGTSSSSGMKSSSGLGSSGSLSQKTPPSSNSCTASSSSFSSSGSSMSSSQNQHGSSKGKSPSRNKKPSLTAVIDKLKHGVVTSGPGGEDPLDGQMGVSTNSSSHPMSSKHNMSGGEFQGKREKSDKDKSKVSTSGSSVDSSKKTSESKNVGSTGVAKIIISKHDGGSPSIKAKVTLQKPGESSGEGLRPQMASSKNYGSPLISGSTPKHERGSPSHSKSPAYTPQNLDSESESGSSIAEKSYQNSPSSDDGIRPLPEYSTEKHKKHKKEKKKVKDKDRDRDRDKDRDKKKSHSIKPESWSKSPISSDQSLSMTSNTILSADRPSRLSPDFMIGEEDDDLM
modifications: left off: large carriers; small tags and cut ends
lowest concentration tested, at which droplets were observed ([1]; droplet formation buffer with 10% PEG-8000, range tested 0.6 to 20 μM): 0.6 µM
